In the supplement of paper PMC9170038:

Tested on: MS2 coat protein
Assay: apparent KD of MS2 coat protein; designed switch direction (-1 OFF switch, 1 ON switch): -1; higher = weaker reporter binding
Outline: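 Normalised cluster fluorescence was curve-fitted, and each design's median over clusters is its apparent KD. Before this, SNAP-549-labelled MS2 coat protein was titrated from 0.7 or 1.5 nM, doubling to 3 µM, over RNA switches transcribed on Illumina chips by stalled E. coli RNA polymerase. Titrations had no input, 200 uM small-molecule ligand, or an oligonucleotide input, and steps lasted 0.8–1.5 h (lowest) to 10–20 min (highest).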

[1] = Eterna round: R95, input ligand: microRNA oligo, concentration not stated
[2] = Eterna round: R95, input ligand: FMN 200 uM
[3] = Eterna round: R95, input ligand: none
[4] = input ligand: microRNA oligo, concentration not stated

Sequence: GAGUUAGCGUGAGGAAUAUACAUGAGGAUCACCCAUGUUGGCUAAUAUAUUGCUCGUCUUAUAACAACAAUUAACUG [Mod-hoo-honey#a] (Eterna round: R97, puzzle: Sensor, turn-off variant 1)
- apparent KD of MS2 coat protein (input ligand: FMN 200 uM): 16 nM
- apparent KD of MS2 coat protein (input ligand: none): 16.4 nM

Sequence: GAUAAGCUAGGAUAUACAUAUUAUUUAAUAUCCUCAUUAAUACAUGAGGAUCACCCAUGUAGAAGGAGCAAUAG [Mat - Exclusion 2 - Mod of Hog - D90] (puzzle: Exclusion 2)
- apparent KD of MS2 coat protein [1]: 108 nM

Sequence: GAUACACAUGAGGAUCACCCAUGUGAGGAUAUGCGUACGUUGUCCGUAGGCGACGUGCGCAGAAGGCGCGUGAG [Mat - Mod of JL D88] (puzzle: Exclusion 1)
- apparent KD of MS2 coat protein [1]: 46.4 nM

Sequence: GAUACCUCAGUGAGGAUAUUUUAUAGAUUAACCAGGAAGAAGGCACAUGAGGAUCACCCAUGUCCACGGCAGCC [Eternabot (L1) Solution 10] (Eterna round: R97, puzzle: Brourd's mod of Exclusion 4)
- apparent KD of MS2 coat protein (input ligand: FMN 200 uM): 23.2 nM
- apparent KD of MS2 coat protein (input ligand: none): 20.9 nM

Sequence: GAUAGAGAGCAGGAUAUCUUGGGUUAGUAUCGUAGAGAAGGGCUCACAUGAGGAUCACCCAUGUGGUCCAAGAU [JL Dibiri mod 02] (puzzle: Exclusion 6)
- apparent KD of MS2 coat protein [2]: 36.5 nM
- apparent KD of MS2 coat protein [1]: 15.1 nM
- apparent KD of MS2 coat protein [3]: 13.3 nM

Sequence: GAUAUCUCAGGAUAUACAUGCCCUCCGAAACGGAGUCAUGAACAUGAGGAUCACCCAUGUAGAAGGGAGAUAUC [Alacar 2] (Eterna round: R97, puzzle: Exclusion 2)
- apparent KD of MS2 coat protein (input ligand: FMN 200 uM): 25.5 nM
- apparent KD of MS2 coat protein (input ligand: none): 15.8 nM

Sequence: GAUAUGGGAGUUAGGAUAUGUCGCCCGAACGGGUAAUAGAAGGGACUUGAGGAUCACCCAAGUCAUAAAGAAUA [Rainan] (Eterna round: R97, puzzle: Brourd's mod of Exclusion 4)
- apparent KD of MS2 coat protein (input ligand: FMN 200 uM): 11.6 nM
- apparent KD of MS2 coat protein (input ligand: none): 14.6 nM

Sequence: GAUAUGGUGGAGGAUAUCAUUUUGGAACCAAAGUGAGAAGGCUAAACAUGAGGAUCACCCAUGUGAAGCAAGGG [Eternabot (Original) Solution 41] (Eterna round: R97, puzzle: Exclusion 6)
- apparent KD of MS2 coat protein (input ligand: FMN 200 uM): 23.3 nM
- apparent KD of MS2 coat protein (input ligand: none): 20.4 nM

Sequence: GAUCAACAUGAGGAUCACCCAUGUGAGGAUAUGCGAGAAUAGACUUCGGUCAGAUAGAGCAGAAGGCGCAGAUA [EX1 #3] (Eterna round: R97, puzzle: Exclusion 1)
- apparent KD of MS2 coat protein (input ligand: FMN 200 uM): 63.7 nM
- apparent KD of MS2 coat protein (input ligand: none): 37.9 nM

Sequence: GAUCAUGCAGGAUAUACAGUAACCAUGAAAACAUGGUUGUAACAUGAGGAUCACCCAUGUAGAAGGGCAUGAUC [Omei Ex2 A4] (Eterna round: R97, puzzle: Exclusion 2)
- apparent KD of MS2 coat protein (input ligand: FMN 200 uM): 23.5 nM
- apparent KD of MS2 coat protein (input ligand: none): 15.4 nM

Sequence: GAUCAUGCAGGAUAUACAGUAUCCAUGAAAACAUGGAUCAAACAUGAGGAUCACCCAUGUAGAAGGGCAUGAUC [Omei Ex2 A23] (Eterna round: R97, puzzle: Exclusion 2)
- apparent KD of MS2 coat protein (input ligand: FMN 200 uM): 19.1 nM
- apparent KD of MS2 coat protein (input ligand: none): 17.9 nM

Sequence: GAUCAUGCAGGAUAUACAGUAUCCAUGAAAACAUGGAUCUAACAUGAGGAUCACCCAUGUAGAAGGGCAUGAUC [Omei Ex2 A24] (Eterna round: R97, puzzle: Exclusion 2)
- apparent KD of MS2 coat protein (input ligand: FMN 200 uM): 17.9 nM
- apparent KD of MS2 coat protein (input ligand: none): 19 nM

Sequence: GAUCAUGCAGGAUAUACAGUUUCCAUGAAAACAUGGACCUCACAUGAGGAUCACCCAUGUAGAAGGGCAUGAUC [Omei Ex2 A27] (Eterna round: R97, puzzle: Exclusion 2)
- apparent KD of MS2 coat protein (input ligand: FMN 200 uM): 982 nM
- apparent KD of MS2 coat protein (input ligand: none): 443 nM

Sequence: GAUCAUGCAGGAUAUACAUGGAACAUGUAAUCAUGAAUUUCACAUGAGGAUCACCCAUGUAGAAGGGCAUGAUC [Omei Ex2 A14] (Eterna round: R97, puzzle: Exclusion 2)
- apparent KD of MS2 coat protein (input ligand: FMN 200 uM): 151 nM
- apparent KD of MS2 coat protein (input ligand: none): 2740 nM

Sequence: GAUCAUGCAGGAUAUACAUGGAUCAUGAAAACAUGAAUUUCACAUGAGGAUCACCCAUGUAGAAGGGCAUGAUC [Omei Ex2 A11] (Eterna round: R97, puzzle: Exclusion 2)
- apparent KD of MS2 coat protein (input ligand: FMN 200 uM): 13.9 nM
- apparent KD of MS2 coat protein (input ligand: none): 293 nM

Sequence: GAUCAUGCAGGAUAUACAUUUUCCAUGAAAACAUGGUCCUCACAUGAGGAUCACCCAUGUAGAAGGGCAUGAUC [Omei Ex2 A30] (Eterna round: R97, puzzle: Exclusion 2)
- apparent KD of MS2 coat protein (input ligand: FMN 200 uM): 37.6 nM
- apparent KD of MS2 coat protein (input ligand: none): 855 nM

Sequence: GAUCGCAUAGUCAGGAUAUCGAAGUAUCGGGACCGCGAGAAGGGACAUGAGGAUCACCCAUGUUUCAUGGGAAG [Riesaratce] (Eterna round: R97, puzzle: Brourd's mod of Exclusion 4)
- apparent KD of MS2 coat protein (input ligand: FMN 200 uM): 182 nM
- apparent KD of MS2 coat protein (input ligand: none): 113 nM

Sequence: GAUCGGACGUGGUCAGGUAACAUGAGGAUCACCCAUGUAGGUCUAGGAACAAGCUUUUUGAAAGCUCGUCUUAUAUA [JR_SV3TOV1_Sub057] (puzzle: Sensor v3, turn-off variant 1)
- apparent KD of MS2 coat protein [2]: 44.8 nM
- apparent KD of MS2 coat protein [1]: 25.5 nM
- apparent KD of MS2 coat protein [3]: 49.3 nM

Sequence: GAUCGUUUAGAGGAUAUCGUGCUAAACAUUACAUGAGAAGGCUAGACAUGAGGAUCACCCAUGUAUACUCGUGA [Exclusion 6 - 8:a] (puzzle: Exclusion 6)
- apparent KD of MS2 coat protein [2]: 23.7 nM
- apparent KD of MS2 coat protein [1]: 14.7 nM
- apparent KD of MS2 coat protein [3]: 18.7 nM

Sequence: GAUCUACAUGAGGAUCACCCAUGUAAGGAUAUCUACAUUGAAGCUUCGGCUUCAAUGUAGAGAAGGUACAAUUA [E1/10-B1] (Eterna round: R97, puzzle: Exclusion 1)
- apparent KD of MS2 coat protein (input ligand: FMN 200 uM): 40.7 nM
- apparent KD of MS2 coat protein (input ligand: none): 27.9 nM

Sequence: GAUCUGACAGGAUAUACAUGAGGAUCACCCAUGUGCGAGCUAGCGAAAGCUAGCUCAGGUAGAAGGGUCAGAUC [Ex3 dot plot directed] (Eterna round: R96, puzzle: Exclusion 3)
- apparent KD of MS2 coat protein (input ligand: FMN 200 uM): 15.1 nM
- apparent KD of MS2 coat protein [4]: 13.1 nM
- apparent KD of MS2 coat protein (input ligand: none): 15.7 nM

Sequence: GAUCUGACAGGAUAUACAUGAGGAUCACCCAUGUGCGAGCUAGCGAAAGCUAGCUCAGGUAGAAGGGUCAGAUC [Ex3 dot plot directed] (puzzle: Exclusion 3)
- apparent KD of MS2 coat protein [1]: 11.6 nM

Sequence: GAUCUGGCAGGAUAUACAUGAGGAUCACCCAUGUGCGAGCUAGCGAAAGCUAGCUCAGGUAGAAGGGUCAGAUC [Ex3 dot plot directed v1] (puzzle: Exclusion 3)
- apparent KD of MS2 coat protein [1]: 10.8 nM

Sequence: GAUCUGUGAGGAUAUUUAUCGUAGUGCGUGUAGCCUGCGCCGGAGAAGGCACAUGAGGAUCACCCAUGUUCUAA [Eternabot (L1) Solution 45] (Eterna round: R97, puzzle: Exclusion 4)
- apparent KD of MS2 coat protein (input ligand: FMN 200 uM): 57.2 nM
- apparent KD of MS2 coat protein (input ligand: none): 51.8 nM

Sequence: GAUGAGGUAGGAUAUACGAGAAUAUAGGGUAGAUAUAUAACACAUGAGGAUCACCCAUGUAGAAGGACCAGUAG [Mat - Exclusion 2 - Mod of my Tesla design - D70] (puzzle: Exclusion 2)
- apparent KD of MS2 coat protein [1]: 33.6 nM

Sequence: GAUGCUCCGGUCAGGAUAUCAGGUGCAAGCACCGGUGAGAAGGGACAUGAGGAUCACCCAUGUAAAAUAAGACC [Aenxeza] (Eterna round: R97, puzzle: Brourd's mod of Exclusion 4)
- apparent KD of MS2 coat protein (input ligand: FMN 200 uM): 40.7 nM
- apparent KD of MS2 coat protein (input ligand: none): 24 nM

Sequence: GAUGGACAUGAGGAUCACCCAUGUAAGGAUAUACGGUUGGUAGAGAGAGAGAGAAAUGGUAGAAGGUACGGAAA [JR_Exclu1_Sub051] (puzzle: Exclusion 1)
- apparent KD of MS2 coat protein [2]: 36.5 nM
- apparent KD of MS2 coat protein [1]: 46.6 nM
- apparent KD of MS2 coat protein [3]: 50.3 nM

Sequence: GAUGUGGGUUUCCGGAGUAACAUGAGGAUCACCCAUGUAGAAGUUGGAGGGAUAAUGCUUUUUGCUCGUUACACGUG [JR_SV3TOV1_Sub054] (puzzle: Sensor v3, turn-off variant 1)
- apparent KD of MS2 coat protein [2]: 404 nM
- apparent KD of MS2 coat protein [1]: 323 nM
- apparent KD of MS2 coat protein [3]: 538 nM

Sequence: GAUGUGGGUUUUCAGAGUAACAUGAGGAUCACCCAUGUAGAAGUUGAAGGUAUCAAGCGAAUGGCUCGUCAAAUGUG [JR_SV3TOV1_Sub049] (puzzle: Sensor v3, turn-off variant 1)
- apparent KD of MS2 coat protein [2]: 229 nM
- apparent KD of MS2 coat protein [1]: 182 nM
- apparent KD of MS2 coat protein [3]: 287 nM

Sequence: GAUGUGUUAGGAUAUCGAAGUAUCUGUGCUGUGGCGAAUCACGAGAAGGAACAUGAGGAUCACCCAUGUGGUUG [Eternabot (L2) Solution 34] (Eterna round: R97, puzzle: Exclusion 4)
- apparent KD of MS2 coat protein (input ligand: FMN 200 uM): 68.9 nM
- apparent KD of MS2 coat protein (input ligand: none): 63.9 nM

Sequence: GAUUAACAUGAGGAUCACCCAUGUGAGGAUAUGGACUUGCCCACUUACCCUUUAGAGUCUAGAAGGCGCAUUUC [1986#31] (Eterna round: R97, puzzle: Exclusion 1)
- apparent KD of MS2 coat protein (input ligand: FMN 200 uM): 23.1 nM
- apparent KD of MS2 coat protein (input ligand: none): 20.9 nM

Sequence: GAUUACAACGAAGACAAGCACAUGAGGAUCACCCAUGUGUAAAAUCGAGUGGGCCCACUCGUACCUCAACACCGUCU [JR_Sensorv2_tov_Sub304] (Eterna round: R96, puzzle: Sensor v2, turn-off variant)
- apparent KD of MS2 coat protein (input ligand: FMN 200 uM): 18.9 nM
- apparent KD of MS2 coat protein [4]: 15.8 nM
- apparent KD of MS2 coat protein (input ligand: none): 19.8 nM

Sequence: GAUUAUGCGAGCUUUAGGGACAUGAGGAUCACCCAUGUUCGUCUUAUUAAUCUAGGUACACUAACAUACCUAAAUCU [JMF 10] (puzzle: Sensor v3, turn-off variant 1)
- apparent KD of MS2 coat protein [2]: 23.9 nM
- apparent KD of MS2 coat protein [1]: 37.6 nM
- apparent KD of MS2 coat protein [3]: 21.4 nM

Sequence: GAUUAUGCGAGCUUUAGGGACAUGAGGAUCACCCAUGUUCGUCUUAUUAAUCUGGGUACGCUAACAUACCUAAAUCU [JMF 41] (puzzle: Sensor v3, turn-off variant 1)
- apparent KD of MS2 coat protein [2]: 28.5 nM
- apparent KD of MS2 coat protein [1]: 40.7 nM
- apparent KD of MS2 coat protein [3]: 26.7 nM

Sequence: GAUUAUGCGAGCUUUAGGGACAUGAGGAUCACCCAUGUUCGUCUUAUUAGUCUAGAUACACUGACAUACCUAAAUCU [JMF 57] (puzzle: Sensor v3, turn-off variant 1)
- apparent KD of MS2 coat protein [2]: 14.5 nM
- apparent KD of MS2 coat protein [1]: 18.2 nM
- apparent KD of MS2 coat protein [3]: 13.8 nM
